According to article PMC6286077:

Target: phosphorylated PD-1 cytosolic domain, bound to large unilamellar vesicles (LUVs)
Assay: FRET or BRET

- fold selectivity of PD-1 toward full-length Shp2 over Shp1: 29 fold
Substance: Shp1, full length, SNAP-Tag fused, labeled with SNAP-Cell 505 (from UniProt P29350 1-595) (enzyme)
